# Numbering of substitutions follows the chain as printed.
# T1: cyno CD40 on cyno spleen B cells (Macaca fascicularis (cynomolgus), UniProt P25942 21-277 (human entry))
# T1 chain: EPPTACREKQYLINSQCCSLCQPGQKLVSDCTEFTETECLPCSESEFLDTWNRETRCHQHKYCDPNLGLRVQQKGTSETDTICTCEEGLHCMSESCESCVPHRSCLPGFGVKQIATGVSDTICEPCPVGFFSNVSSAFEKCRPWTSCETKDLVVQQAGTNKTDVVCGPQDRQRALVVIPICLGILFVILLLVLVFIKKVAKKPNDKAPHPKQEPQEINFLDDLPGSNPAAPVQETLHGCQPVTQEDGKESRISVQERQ
# B1: Antibody D (antibody, human IgG1, kappa, L234A L235A, V domains shown)
# VH: EVQLVESGGGLVKPGGSLRLSCAASGFTFSDYGMHWVRQAPGKGLEWVAYISSGNRIIYYADTVKGRFTISRDNAKNSLYLQMNSLRAEDTAVYYCARQDGYRYAMDYWGQGTLVTVSS
# VL: DIVMTQSPDSLAVSLGEKVTINCKSSQSLLNSGNQKNYLTWHQQKPGQPPKLLIYWTSTRESGVPDRFSGSGSGTDFTLTISSLQAEDVAVYYCQNDYTYPLTFGGGTKVEIKR
# notes: Benchmark; also called antibody B IgG1KOb (U.S. Pat. No. 8,591,900)
# B2: C40B138 (antibody, human IgG4 S228P, lambda, F234A L235A)
# heavy: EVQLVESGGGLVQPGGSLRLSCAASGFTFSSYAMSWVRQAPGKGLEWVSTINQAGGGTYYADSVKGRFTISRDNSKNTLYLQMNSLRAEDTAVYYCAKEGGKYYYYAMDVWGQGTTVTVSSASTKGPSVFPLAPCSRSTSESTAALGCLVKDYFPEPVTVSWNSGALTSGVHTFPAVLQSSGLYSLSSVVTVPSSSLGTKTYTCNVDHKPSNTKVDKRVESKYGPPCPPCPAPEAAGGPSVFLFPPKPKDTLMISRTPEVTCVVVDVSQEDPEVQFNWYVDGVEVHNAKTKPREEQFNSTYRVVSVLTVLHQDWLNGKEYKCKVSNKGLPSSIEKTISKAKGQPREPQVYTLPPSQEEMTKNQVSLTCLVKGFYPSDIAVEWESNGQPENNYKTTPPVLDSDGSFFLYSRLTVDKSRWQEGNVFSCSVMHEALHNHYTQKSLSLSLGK
# light: SYELTQPPSVSVSPGQTASITCSGDKLGDKYAAWYQQKPGQSPVLVIYQDSRRPSGIPERFSGSNSGNTATLTISGTQAMDEADYYCQAWASSTVVFGGGTKLTVLGQPKAAPSVTLFPPSSEELQANKATLVCLISDFYPGAVTVAWKADSSPVKAGVETTTPSKQSNNKYAASSYLSLTPEQWKSHRSYSCQVTHEGSTVEKTVAPTECS
# notes: IgG4PAA
# B3: C40B179 (antibody, human IgG1, lambda)
# heavy: EVQLVESGGGLVQPGGSLRLSCAASGFTFSSYAMSWVRQAPGKGLEWVSTINQAGGGTYYADSVKGRFTISRDNSKNTLYLQMNSLRAEDTAVYYCAKEGGKYYYYALDVWGQGTTVTVSSASTKGPSVFPLAPSSKSTSGGTAALGCLVKDYFPEPVTVSWNSGALTSGVHTFPAVLQSSGLYSLSSVVTVPSSSLGTQTYICNVNHKPSNTKVDKKVEPKSCDKTHTCPPCPAPEAAGASSVFLFPPKPKDTLMISRTPEVTCVVVDVSAEDPEVKFNWYVDGVEVHNAKTKPREEQYNSTYRVVSVLTVLHQDWLNGKEYKCKVSNKALPSSIEKTISKAKGQPREPQVYTLPPSREEMTKNQVSLTCLVKGFYPSDIAVEWESNGQPENNYKTTPPVLDSDGSFFLYSKLTVDKSRWQQGNVFSCSVMHEALHNHYTQKSLSLSPGK
# light: B2 light
# notes: IgG1sigma
# B4: C40B180 (antibody, human IgG4 S228P, lambda, F234A L235A)
# heavy: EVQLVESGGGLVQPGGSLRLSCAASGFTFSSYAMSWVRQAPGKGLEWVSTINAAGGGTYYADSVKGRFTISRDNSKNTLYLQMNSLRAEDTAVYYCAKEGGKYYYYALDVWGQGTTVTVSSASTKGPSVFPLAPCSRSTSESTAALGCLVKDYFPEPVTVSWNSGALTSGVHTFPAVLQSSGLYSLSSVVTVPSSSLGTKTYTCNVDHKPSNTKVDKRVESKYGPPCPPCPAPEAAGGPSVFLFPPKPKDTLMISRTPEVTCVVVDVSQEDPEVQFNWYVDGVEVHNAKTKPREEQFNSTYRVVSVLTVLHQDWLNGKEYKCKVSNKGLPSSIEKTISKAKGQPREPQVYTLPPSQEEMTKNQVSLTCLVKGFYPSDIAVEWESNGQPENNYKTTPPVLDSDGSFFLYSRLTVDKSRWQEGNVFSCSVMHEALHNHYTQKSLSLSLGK
# light: B2 light
# notes: IgG4PAA
# B5: C40B135 (antibody, human IgG4 S228P, lambda, F234A L235A)
# heavy: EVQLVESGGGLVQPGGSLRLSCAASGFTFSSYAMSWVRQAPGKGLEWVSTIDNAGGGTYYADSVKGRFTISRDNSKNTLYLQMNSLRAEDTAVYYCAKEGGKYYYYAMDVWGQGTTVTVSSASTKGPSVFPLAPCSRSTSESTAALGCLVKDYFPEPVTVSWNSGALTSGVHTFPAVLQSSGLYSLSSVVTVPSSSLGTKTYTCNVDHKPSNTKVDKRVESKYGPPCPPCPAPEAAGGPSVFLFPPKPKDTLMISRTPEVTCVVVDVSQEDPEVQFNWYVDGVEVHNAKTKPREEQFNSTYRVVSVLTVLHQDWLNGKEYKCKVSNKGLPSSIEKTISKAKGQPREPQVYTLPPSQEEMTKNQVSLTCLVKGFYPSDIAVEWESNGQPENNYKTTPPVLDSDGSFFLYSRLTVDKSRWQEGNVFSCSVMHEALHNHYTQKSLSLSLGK
# light: B2 light
# notes: IgG4PAA
# B6: C40B136 (antibody, human IgG4 S228P, lambda, F234A L235A)
# heavy: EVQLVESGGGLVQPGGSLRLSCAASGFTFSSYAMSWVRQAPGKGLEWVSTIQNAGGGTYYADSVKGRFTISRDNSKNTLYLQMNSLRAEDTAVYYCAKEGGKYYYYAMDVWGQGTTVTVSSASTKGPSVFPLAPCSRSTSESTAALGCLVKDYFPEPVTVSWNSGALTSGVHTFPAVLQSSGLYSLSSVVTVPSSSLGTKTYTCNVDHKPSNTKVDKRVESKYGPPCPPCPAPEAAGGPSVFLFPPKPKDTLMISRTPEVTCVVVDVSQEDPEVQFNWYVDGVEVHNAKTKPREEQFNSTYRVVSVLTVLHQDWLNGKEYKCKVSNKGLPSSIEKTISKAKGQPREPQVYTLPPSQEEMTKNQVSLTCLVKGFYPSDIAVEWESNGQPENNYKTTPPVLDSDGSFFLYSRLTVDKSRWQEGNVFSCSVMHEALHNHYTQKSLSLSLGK
# light: B2 light
# notes: IgG4PAA
# B7: C40B183 (antibody, human IgG4 S228P, lambda, F234A L235A)
# heavy: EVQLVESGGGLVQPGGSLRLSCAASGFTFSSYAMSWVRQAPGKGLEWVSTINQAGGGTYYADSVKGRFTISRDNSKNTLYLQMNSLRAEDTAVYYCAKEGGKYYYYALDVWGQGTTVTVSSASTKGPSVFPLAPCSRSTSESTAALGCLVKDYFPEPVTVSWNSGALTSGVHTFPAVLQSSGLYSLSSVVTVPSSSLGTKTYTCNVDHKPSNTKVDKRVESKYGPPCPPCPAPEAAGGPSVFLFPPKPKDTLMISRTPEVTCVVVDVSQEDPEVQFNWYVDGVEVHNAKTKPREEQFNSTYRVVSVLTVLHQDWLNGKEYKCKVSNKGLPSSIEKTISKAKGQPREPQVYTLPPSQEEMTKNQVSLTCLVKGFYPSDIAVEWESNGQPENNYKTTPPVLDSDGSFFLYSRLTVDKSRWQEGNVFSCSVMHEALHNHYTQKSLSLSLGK
# light: B2 light
# notes: IgG4PAA
# B8: C40B125 (antibody, human IgG1, lambda)
# heavy: B3 heavy with N52Q, Q53N, L108M
# light: B2 light
# notes: IgG1sigma
# B9: C40B127 (antibody, human IgG1, lambda)
# heavy: B3 heavy with L108M
# light: B2 light
# notes: IgG1sigma
# B10: C40B131 (antibody, human IgG4 S228P, lambda, F234A L235A, V domains shown)
# VH: EVQLVESGGGLVQPGGSLRLSCAASGFTFSSYAMSWVRQAPGKGLEWVSTINAAGGGTYYADSVKGRFTISRDNSKNTLYLQMNSLRAEDTAVYYCAKEGGKYYYYAMDVWGQGTTVTVSS
# VL: SYELTQPPSVSVSPGQTASITCSGDKLGDKYAAWYQQKPGQSPVLVIYQDSRRPSGIPERFSGSNSGNTATLTISGTQAMDEADYYCQAWASSTVVFGGGTKLTVLG
# notes: IgG4PAA
# B11: C40B124 (antibody, human IgG1, lambda)
# heavy: B3 heavy with N52D, Q53N, L108M
# light: B2 light
# notes: IgG1sigma
# B12: C40B16 (antibody, human IgG1, lambda, V domains shown)
# VH: B10 VH with K43R, A53N, A54S, Q82H
# VL: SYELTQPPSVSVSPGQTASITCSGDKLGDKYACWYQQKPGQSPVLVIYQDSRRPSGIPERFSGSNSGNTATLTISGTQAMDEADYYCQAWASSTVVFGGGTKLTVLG
# notes: Wild-type IgG1, lambda light chain; also called parental C40B16
# Molecular target: T2, human CD40 on cells (human tonsillar B cells, human dendritic cells, HEK-Blue CD40L cells) (human, UniProt P25942 21-277)
# Experiment: cell-based or functional assay
Binder,"IC50, human DC IL-12p40 production, membrane CD40L [nM]","IC50, human DC IL-12p40 production, soluble CD40L [nM]"
B1,3.63,0.781

# Molecular target: T1, cyno CD40 on cyno spleen B cells
# Experiment: cell-based or functional assay
row,Binder,"IC50, sCD40L-driven cyno B-cell proliferation [nM]"
1,B2,0.075
2,B3,0.119
3,B4,0.109
4,B5,0.077
5,B6,0.065
6,B7,0.11
7,B8,0.083
8,B9,0.066

# Molecular target: T2, human CD40 on cells (human tonsillar B …)
# Experiment: cell-based or functional assay
# Remark: another data set of the same source
Binder,"IC50, mCD40L-driven human B-cell proliferation [nM]","IC50, sCD40L-driven human B-cell proliferation [nM]"
B2,0.106,0.048
B3,0.178,0.132
B4,0.136,0.092
B5,0.131,0.056
B6,0.122,0.087
B10,0.099,
B7,0.14,0.103
B8,0.128,0.088
B9,0.111,0.073
B11,0.118,

# Molecular target: T2, human CD40 on cells (human tonsillar B …)
# Experiment: cell-based or functional assay
# Remark: another data set of the same source
Binder,"IC50, mCD40L-driven DC IL-12p40 production [nM]","IC50, sCD40L-driven DC IL-12p40 production [nM]"
B2,0.341,0.262
B3,0.297,0.184
B4,0.222,0.225
B5,0.43,0.329
B6,0.379,0.246
B10,0.323,0.33
B7,0.291,0.208
B8,0.393,0.244
B9,0.383,0.27
B11,0.507,0.387

# Molecular target: T2, human CD40 on cells (human tonsillar B …)
# Experiment: cell-based or functional assay
# Remark: another data set of the same source
Binder,"IC50, B cell proliferation, membrane CD40L, human B-cells [nM]","IC50, B cell proliferation, soluble CD40L, human B-cells [nM]"
B1,1.93,0.68

# Molecular target: T3, human CD40 (analyte in SPR) (human, UniProt P25942 21-193)
# T3 construct: also called huCD40
# Experiment: affinity in benchmark table; method not restated (SPR ProteOn of Example 3 presumed)
row,Binder,Kd [nM]
1,B3,0.0343
2,B4,0.0599
3,B7,0.107
4,B1,0.58

# Molecular target: T3, human CD40 (analyte in SPR)
# Experiment: SPR, ProteOn XPR36, mAb captured on anti-human IgG Fc, CD40 as analyte, 25 C, 1:1 Langmuir
# Description: Affinity of the antibodies to human CD40 was assessed using Surface Plasmon Resonance (SPR) using a ProteOn XPR36 system (BioRad). […] Approximately 5000 RU (response units) of mAbs were immobilized. The kinetic experiments were performed at 25° C. in running buffer (DPBS+0.01% P20+100 μg/ml BSA). To perform kinetic experiments, 200 RU of mAbs were captured followed by injections of analytes (human or cyno CD40) at 5 concentrations (in a 4-fold serial dilution). The association phase was monitored for 3 minutes at 50 μL/min, then followed by 15 minutes of buffer flow (dissociation phase). The chip surface was regenerated with two 18 second pulses of 100 mM H₃PO₄ (Sigma, Cat#7961) at 100 μL/min.
# The collected data were processed using ProteOn Manager software. First, the data was corrected for background using inter-spots. Then, double reference subtraction of the data was performed by using the buffer injection for analyte injections. The kinetic analysis of the data was performed using a Langmuir 1:1 binding model. The results were reported in the format of Ka (On-rate), Kd (Off-rate) and KD (equilibrium dissociation constant).
Binder,Kd [nM],koff [s⁻¹],kon [M⁻¹ s⁻¹]
B2,0.0599,0.000215,3.58e+06
B3,0.0933,0.000267,2.86e+06
B4,0.137,0.000366,2.67e+06
B5,0.0496,0.000145,2.93e+06
B6,0.0343,0.000113,3.3e+06
B10,0.0812,0.000286,3.52e+06
B7,0.121,0.00035,2.91e+06
B12,0.0368,0.000157,4.27e+06
B8,0.0349,0.000136,3.89e+06
B9,0.0303,0.000115,3.79e+06
B11,0.0416,9.56e-05,2.3e+06

# — US20190048089A1 (Janssen / Centocor, published 2019)
